We go through 17 molecules from publication PMC2430598, “Structural Analysis Reveals Conformational Plasticity in the Recognition of RNA 3′ Ends by the Human La Protein”.

Data set [1] deals with T1, LaNTD (La 1-194) (Homo sapiens, UniProt P05455 1-194).
T1 sequence: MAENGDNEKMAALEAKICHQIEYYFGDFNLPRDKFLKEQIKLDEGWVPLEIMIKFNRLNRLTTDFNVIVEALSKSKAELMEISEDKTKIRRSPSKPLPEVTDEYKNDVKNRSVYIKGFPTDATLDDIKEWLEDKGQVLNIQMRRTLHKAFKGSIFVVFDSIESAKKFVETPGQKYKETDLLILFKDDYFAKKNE
In words: EMSA; EMSA: ~1 nM radiolabeled RNA, protocol of Jacks et al. 2003 (buffer, salt, pH, temperature not given); NMR: 15N-LaNTD, RNA:protein 0.2-1.5:1, NMR buffer not given. The settings on record: protein: recombinant, single strand. On the technique in general: A gel shift assay detects complexes by their altered migration in electrophoresis.

The target in data set [2] is T2, LaNTD (La 4-194) (Homo sapiens, UniProt P05455 4-194).
T2 sequence: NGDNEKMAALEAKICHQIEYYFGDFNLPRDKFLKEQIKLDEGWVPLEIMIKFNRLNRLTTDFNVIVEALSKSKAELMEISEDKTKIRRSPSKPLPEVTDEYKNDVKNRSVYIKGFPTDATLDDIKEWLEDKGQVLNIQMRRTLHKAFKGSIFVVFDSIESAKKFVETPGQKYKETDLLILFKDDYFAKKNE
In words: X-ray crystallography; 2.1 A, C2; EMSA: ~1 nM radiolabeled RNA, protocol of Jacks et al. 2003 (buffer, salt, pH, temperature not given); NMR: 15N-LaNTD, RNA:protein 0.2-1.5:1, NMR buffer not given. The note with it: protein: recombinant; tags: N-terminal 6xHis removed by thrombin; leaves Gly-Ser; single strand.

For data set [3], the target named is T2, LaNTD (La 4-194). Nature of the data set: X-ray crystallography; 1.8 A, P21212; only last two U modelled; EMSA: ~1 nM radiolabeled RNA, protocol of Jacks et al. 2003 (buffer, salt, pH, temperature not given); NMR: 15N-LaNTD, RNA:protein 0.2-1.5:1, NMR buffer not given. The settings on record: protein: recombinant; tags: N-terminal 6xHis removed by thrombin; leaves Gly-Ser; single strand.

Data set [4] addresses T2, LaNTD (La 4-194). In words: X-ray crystallography; 2.8 A, C222; EMSA: ~1 nM radiolabeled RNA, protocol of Jacks et al. 2003 (buffer, salt, pH, temperature not given); NMR: 15N-LaNTD, RNA:protein 0.2-1.5:1, NMR buffer not given. The note with it: protein: recombinant; tags: N-terminal 6xHis removed by thrombin; leaves Gly-Ser; single strand.
Data set [5] addresses T1, LaNTD (La 1-194). In words: NMR HSQC titration; split resonances, two states; EMSA: ~1 nM radiolabeled RNA, protocol of Jacks et al. 2003 (buffer, salt, pH, temperature not given); NMR: 15N-LaNTD, RNA:protein 0.2-1.5:1, NMR buffer not given. The note with it: protein: recombinant; single strand.
Data set [6] has as its target T1, LaNTD (La 1-194). Nature of the data set: EMSA; reference oligomer for relative Kd; EMSA: ~1 nM radiolabeled RNA, protocol of Jacks et al. 2003 (buffer, salt, pH, temperature not given); NMR: 15N-LaNTD, RNA:protein 0.2-1.5:1, NMR buffer not given. The settings on record: protein: recombinant; label: radiolabeled; single strand.
The target in data set [7] is T1, LaNTD (La 1-194). Nature of the data set: NMR HSQC titration and relaxation; EMSA: ~1 nM radiolabeled RNA, protocol of Jacks et al. 2003 (buffer, salt, pH, temperature not given); NMR: 15N-LaNTD, RNA:protein 0.2-1.5:1, NMR buffer not given. The note with it: protein: recombinant; single strand.
In data set [8] the target is T1, LaNTD (La 1-194). In words: NMR HSQC titration; EMSA: ~1 nM radiolabeled RNA, protocol of Jacks et al. 2003 (buffer, salt, pH, temperature not given); NMR: 15N-LaNTD, RNA:protein 0.2-1.5:1, NMR buffer not given. The settings on record: protein: recombinant; single strand.

Broadly, the Kd is the concentration at which binding is half-saturated.

As to CACACAUCUU (ssRNA), the binding signal in data set [1] (label: radiolabeled) was 1.4 ± 0.5 Kd relative to CACACAAUUU (30 nM). Same read-out and setting: the figure for CACACAUAUU (ssRNA) is 1 ± 0.2 Kd relative to CACACAAUUU (30 nM). For AUAUUUU (ssRNA), the binding result in data set [2] is listed as “binds”. Same read-out and setting: with AUAAUUU (ssRNA) the entry was “binds”. On to UUUUUUUU (ssRNA) [UUUUUUUU (U8)], for which the binding result in data set [3] is listed as “binds”. CACACAACUU (ssRNA): the binding signal in data set [1] (label: radiolabeled) is 2 ± 0.8 Kd relative to CACACAAUUU (30 nM). The same measure, in the same setting: the figure for CACACACUUU (ssRNA) is 1.2 ± 0.4 Kd relative to CACACAAUUU (30 nM). UUUUUUUUUU (ssRNA) [UUUUUUUUUU (U10)]: the binding signal in data set [1] ((radiolabeled) in gel shift, unlabeled in NMR) is 1 ± 0.4 Kd relative to CACACAAUUU (30 nM). Consider AUUUU (ssRNA), for which the binding result in data set [4] and in data set [5] was “binds” in each case. On to CACACAAUUU (ssRNA), for which the Kd in data set [6] stood at 30 nM. Regarding ACACACUUUU (ssRNA), the binding signal in data set [1] (label: radiolabeled) was 0.7 ± 0.2 Kd relative to CACACAAUUU (30 nM). For the molecule CACACAUUUU (ssRNA), the binding signal in data set [1] (label: radiolabeled) was 0.8 ± 0.3 Kd relative to CACACAAUUU (30 nM). For the molecule UUU (ssRNA), the binding result in data set [7] is recorded as “binds”.

Consider CACACACCUU (ssRNA), for which the binding signal in data set [1] (label: radiolabeled) is 2.4 ± 0.5 Kd relative to CACACAAUUU (30 nM).

In the case of CACACAAAUU (ssRNA), the binding signal in data set [1] (label: radiolabeled) is 2.8 ± 1.1 Kd relative to CACACAAUUU (30 nM).

With UCUU (ssRNA), the binding result in data set [8] is “binds”. In the case of UUUU (ssRNA), the binding result in data set [7] is “binds”.
